From patent publication US7041463B2, “Orthologues of human receptors and methods of use” (Pharmacopeia Drug Discovery, Inc., priority 2000, dated 2006)
pKd, pKi: −log10 of the molar value.

How the values were obtained:
[1] = molecular target: B1 receptors (species homologues); assay: [3H]-des-Arg10-kallidin binding across all cloned B1 orthologues; conditions: 0.6 nM or 1.5 nM (rat) [3H]-dAKd
Experimental: (§1) Membrane preparations for use in accordance with the methods of the present invention were generated as follows. 293E cells expressing B1 receptors were harvested and pelleted. Cells were washed once with PBS and once with a membrane buffer (for example, 10 mM HEPES pH 7.5, 1 μM phosphoramidon, 3 μM amastatin, 1 μM captopril, 2 μM dithiothreitol (DTT)). Cells were resuspended in membrane buffer and Dounce homogenized on ice 35 times. The membranes were collected by centrifugation at 15,000×g for 30 min. at 4° C. and resuspended in membrane buffer containing 0.2% bovine serum albumin (BSA) at a final concentration of approximately 5×10^7 cell equivalents per ml. Aliquots were flash frozen and stored at −80° C. Frozen aliquots were subsequently thawed, diluted, and sonicated on ice using a Branson Sonifier® 250 (4×5 sec, 40% output).
(§2) Prior to use in a binding assay, a membrane preparation is “calibrated” as described below to determine the amount of membrane preparation to be used. […]
(§3) The method of the present invention employs a binding assay such as the one described below. […] 50 μl of scintillation fluid was added to each well and plates were counted in a Wallac Microbeta® TriLux for 10 min. per well.

tree shrew B1 receptor = assay: [3H]-des-Arg10-kallidin binding, 293E membranes, tree shrew B1; design: species or system tree shrew (Tupaia minor); conditions: read-out: average dissociation constant (KD)
Experimental: as §1, §2, §3

CXCR2 receptor = assay: CXCR2 radioligand binding, 293E membranes, monkey/primate receptors; conditions: recombinant CXCR2 from six primate species
Experimental: Membrane preparations for use in accordance with the methods of the present invention were generated as follows. 293E cell monolayers expressing CXCR2 receptors were washed twice with PBS and 5 ml of ice cold homogenizing buffer (for example, 10 mM HEPES pH 8.0, 10 mM EDTA). Cells were resuspended in membrane buffer and Dounce homogenized on ice 35 times. The membranes were collected by centrifugation at 15,000×g for 30 min. at 4° C. and resuspended in membrane storage buffer (10 mM Tris-HCl pH8.0, 1.2 mM MgSO4, 0.1 mM EDTA, 25 mM NaCl, 1 unit/ml bacitracin) at a final concentration of approximately 5×10^7 cell equivalents per ml. Aliquots were flash frozen and stored at −80° C. Frozen aliquots were subsequently thawed, diluted, and sonicated on ice using a Branson Sonifier® 250 (4×5 sec, 40% output).
Prior to use in a binding assay, a membrane preparation is “calibrated” as described below to determine the amount of membrane preparation to be used. A frozen sample of a membrane preparation is thawed and the preparation diluted in assay buffer to obtain several different concentrations of membranes, for example, 1:5, 1:10, 1:20, 1:40 and so on. The diluted membrane preparation is sonicated in a bath style sonicator for 5 minutes at room temperature. Each dilution is plated in a 96-well plate, for example, with quintuplicate samples for binding of ligand and wells to evaluate non-specific binding in triplicate. The dilutions that yield approximately 200 cpm total counts are chosen for subsequent assays.
For determining binding affinity for the orthologous CXCR2 receptors, described herein, the method of the present invention employs a binding assay such as the one described below. A suitable binding assay buffer for receptor binding consists of 10 mM Tris pH 8.0, 0.1 mM EDTA, 1.2 mM MgSO4, 25 mM NaCl and 0.03% CHAPS (Sigma, St. Louis, Mo.). […] 50 μl of scintillation fluid was added to each well and plates were counted in a Wallac Microbeta® TriLux for 1 min. per well.

[2] = molecular target: human bradykinin B1 receptor (human) (UniProt P46663); assay: radioligand competition binding
[3] = molecular target: canine/human chimeric bradykinin B1 receptor (UniProt Q9BDQ5); assay: radioligand competition binding
[4] = molecular target: rabbit bradykinin B1 receptor (rabbit) (UniProt P48748); assay: radioligand competition binding
Sequence of rabbit bradykinin B1 receptor (rabbit) (P48748 whole entry): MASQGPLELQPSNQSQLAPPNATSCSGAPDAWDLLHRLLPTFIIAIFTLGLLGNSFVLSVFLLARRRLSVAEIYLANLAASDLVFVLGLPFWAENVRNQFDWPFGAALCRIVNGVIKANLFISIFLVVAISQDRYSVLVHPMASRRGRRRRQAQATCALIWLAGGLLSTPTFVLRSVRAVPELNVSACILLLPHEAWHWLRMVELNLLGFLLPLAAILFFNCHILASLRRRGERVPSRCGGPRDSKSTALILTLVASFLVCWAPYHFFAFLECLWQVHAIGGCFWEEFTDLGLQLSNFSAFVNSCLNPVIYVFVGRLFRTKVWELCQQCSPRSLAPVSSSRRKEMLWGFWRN

[5] = molecular target: tree shrew bradykinin B1 receptor (UniProt Q8HZP1); assay: radioligand competition binding
Sequence of tree shrew bradykinin B1 receptor (Q8HZP1 whole entry): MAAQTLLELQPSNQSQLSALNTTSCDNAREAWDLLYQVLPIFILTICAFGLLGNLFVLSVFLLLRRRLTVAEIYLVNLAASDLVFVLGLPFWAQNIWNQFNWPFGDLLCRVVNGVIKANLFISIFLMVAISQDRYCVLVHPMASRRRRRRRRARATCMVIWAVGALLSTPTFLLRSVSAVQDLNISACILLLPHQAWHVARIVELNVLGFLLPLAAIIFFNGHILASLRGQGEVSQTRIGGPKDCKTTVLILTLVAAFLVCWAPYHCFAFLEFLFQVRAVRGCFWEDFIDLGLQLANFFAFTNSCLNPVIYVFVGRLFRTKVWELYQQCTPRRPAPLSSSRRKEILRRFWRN

[6] = molecular target: rhesus macaque bradykinin B1 receptor (UniProt Q8HZP2); assay: radioligand competition binding
[7] = molecular target: pig bradykinin B1 receptor (UniProt Q8HZN9); assay: radioligand competition binding
Sequence of pig bradykinin B1 receptor (Q8HZN9 whole entry): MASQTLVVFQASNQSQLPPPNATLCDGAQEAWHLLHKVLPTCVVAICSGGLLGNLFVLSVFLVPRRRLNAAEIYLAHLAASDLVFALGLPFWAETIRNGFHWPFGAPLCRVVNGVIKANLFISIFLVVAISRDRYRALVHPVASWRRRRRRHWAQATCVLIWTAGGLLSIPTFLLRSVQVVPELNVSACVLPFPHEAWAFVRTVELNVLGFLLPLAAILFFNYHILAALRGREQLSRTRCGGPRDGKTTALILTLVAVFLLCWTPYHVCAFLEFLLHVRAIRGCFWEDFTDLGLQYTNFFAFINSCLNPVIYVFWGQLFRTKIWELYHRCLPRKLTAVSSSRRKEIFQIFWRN

dog B1 = molecular target: T1, dog B1 (Canis lupus familiaris, UniProt Q9BDQ5, D322E/F324Y/R319K); assay: [3H]-des-Arg10-kallidin binding, 293E membranes, dog B1 (canine/human chimera); conditions: 0.6 nM [3H]-dAKd
T1 construct: the chimeric canine/human receptor described above was used in the experiments described below; C-terminal cytoplasmic tail of human bradykinin B1 receptor (fusion partner of the chimera); expressed in transfected cells; host or cells: 293-EBNA (293E) cells, membranes
T1 sequence (Q9BDQ5 with tags, fused parts or gaps R319K/D322E/F324Y): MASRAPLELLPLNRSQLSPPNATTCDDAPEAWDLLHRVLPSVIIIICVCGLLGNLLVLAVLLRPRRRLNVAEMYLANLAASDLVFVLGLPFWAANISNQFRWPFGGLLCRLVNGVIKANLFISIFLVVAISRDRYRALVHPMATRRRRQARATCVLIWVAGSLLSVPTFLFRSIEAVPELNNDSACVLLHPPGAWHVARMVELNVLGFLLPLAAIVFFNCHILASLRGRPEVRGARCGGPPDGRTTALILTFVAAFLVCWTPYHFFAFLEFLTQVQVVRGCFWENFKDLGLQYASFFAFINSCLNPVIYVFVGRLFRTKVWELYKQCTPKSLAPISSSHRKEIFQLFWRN
Excerpt: Additionally, a canine/human chimeric bradykinin B1 receptor comprising amino acids 1 to 320 of the canine sequence and amino acids 319–353 of human bradykinin B1 receptor was generated. Any number of chimeric molecules, for example, a chimera comprising amino acids 1–315 of the canine sequence and amino acids 314–353 of the human sequence can be used.
as §1, with “Frozen aliquots were subsequently thawed, diluted, and sonicated on ice using a Branson Sonifier® 250 (4×5 sec, 40% output).” left out
as §3

[8] = molecular target: human bradykinin B1 receptor (human) (UniProt P46663); assay: radioligand saturation binding; legend: [3H]-des-Arg10-kallidin
[9] = molecular target: canine/human chimeric bradykinin B1 receptor (UniProt Q9BDQ5); assay: as above
[10] = molecular target: rabbit bradykinin B1 receptor (rabbit) (UniProt P48748); assay: as above
[11] = molecular target: tree shrew bradykinin B1 receptor (UniProt Q8HZP1); assay: as above
[12] = molecular target: rhesus macaque bradykinin B1 receptor (UniProt Q8HZP2); assay: as above
[13] = molecular target: pig bradykinin B1 receptor (UniProt Q8HZN9); assay: as above

Sequence of [des-Arg^10] [Leu^9]kallidin (P01042 whole entry, looked up): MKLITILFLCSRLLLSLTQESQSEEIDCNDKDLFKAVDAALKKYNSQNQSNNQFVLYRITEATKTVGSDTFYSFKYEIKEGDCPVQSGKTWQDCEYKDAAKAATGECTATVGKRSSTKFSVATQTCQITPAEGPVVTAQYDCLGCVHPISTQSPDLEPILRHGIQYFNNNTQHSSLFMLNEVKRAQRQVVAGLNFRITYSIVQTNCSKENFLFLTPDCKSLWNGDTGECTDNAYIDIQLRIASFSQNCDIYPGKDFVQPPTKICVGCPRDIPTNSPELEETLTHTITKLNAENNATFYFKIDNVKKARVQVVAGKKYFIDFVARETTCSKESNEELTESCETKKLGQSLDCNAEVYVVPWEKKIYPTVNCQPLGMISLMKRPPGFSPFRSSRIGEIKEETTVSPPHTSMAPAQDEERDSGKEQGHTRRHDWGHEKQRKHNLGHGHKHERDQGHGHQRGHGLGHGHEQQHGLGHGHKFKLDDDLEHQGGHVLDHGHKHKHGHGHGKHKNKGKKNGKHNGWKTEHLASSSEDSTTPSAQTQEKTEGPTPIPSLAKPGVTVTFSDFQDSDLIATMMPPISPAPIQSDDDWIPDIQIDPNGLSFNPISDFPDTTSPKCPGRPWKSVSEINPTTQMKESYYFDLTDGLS
Sequence of des-Arg^10-kallidin (P01042 whole entry, looked up): as above

Compound: N=C(N)NCCC[C@H](NC(=O)[C@@H](N)CCCCN)C(=O)N1CCC[C@H]1C(=O)N1CCC[C@H]1C(=O)NCC(=O)N[C@@H](Cc1ccccc1)C(=O)N[C@@H](CO)C(=O)N1CCC[C@H]1C(=O)N[C@@H](Cc1ccccc1)C(=O)O [dAKd, des-Arg^10-Kallidin]
- affinity (K1) at all B1 species homologues, in words [1]: approximately equipotent
- affinity (K1) at all B1 species homologues, in words ([1]; listed as dAKD): strong affinity
- pKd (tree shrew B1 receptor): 8.38

Compound: ENA-78: ligand bound by the encoded CXCR2 receptors
- binding to the encoded receptors, in words (CXCR2 receptor): capable of binding

Compound: Gro-alpha: ligand bound by the encoded CXCR2 receptors
- binding to the encoded receptors, in words (CXCR2 receptor): capable of binding

Compound: [des-Arg^10] [Leu^9]kallidin (from UniProt P01042 380-388)
- pKi [2]: 8.34
- pKi [3]: 6.92
- pKi [4]: 8.03
- pKi [5]: 7.66
- pKi [6]: 8.02
- pKi [7]: 8.02

Compound: [des-Arg^10] [Leu^9]kallidin [dALKd]
- affinity (K1) at dog B1, in words (dog B1): more than an order of magnitude weaker

Compound: des-Arg^10-kallidin (from UniProt P01042 380-388)
- Kd [8]: 0.6 ?
- Kd [9]: 3.3 ?
- Kd [10]: 1.3 ?
- Kd [11]: 4.2 ?
- Kd [12]: 2.8 ?
- Kd [13]: 1.9 ?
- pKi [2]: 8.82
- pKi [3]: 8.38
- pKi [4]: 8.47
- pKi [5]: 8.21
- pKi [6]: 8.48
- pKi [7]: 8.64

Compound: interleukin 8: native ligand of CXCR2
- binding to the encoded receptors, in words (CXCR2 receptor): capable of binding
